{"source": "paper PMC11634773", "about": "(Nature, 2024)", "origin": "cited, not measured here", "conditions": "humans, basal insulin"}
{"substance": "insulin glargine", "values": [{"measurement": "c.v. for traditional needle-based subcutaneous pen injection", "result": 33, "unit": "%"}]}
